Patent publication US20240261333A1 (published 2024)

Columns and labels:
Test in all cases: anti-FLAG co-IP from lysate of N-FLAG B3GNT2 cells, mass spectrometry
[1] = target: T1, NTPCR (human, UniProt Q9BSD7 2-190)
T1 construct: also called NP_001316381.1 (+2)
T1 sequence (looked up): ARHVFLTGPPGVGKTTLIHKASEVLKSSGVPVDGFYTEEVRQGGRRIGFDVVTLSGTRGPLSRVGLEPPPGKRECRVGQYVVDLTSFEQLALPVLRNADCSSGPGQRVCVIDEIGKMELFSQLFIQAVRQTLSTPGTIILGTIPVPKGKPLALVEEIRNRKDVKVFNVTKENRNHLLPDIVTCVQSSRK
Experimental: (§1) Cells were plated in 10-cm cell culture dishes and grown to 60-80% confluency. For each condition, two biological replicates were harvested for co-IP. Cells were washed with PBS and 4 mL of lysis buffer (20 mM HEPES, 1% Triton X-100, 150 mM NaCl, 1 mM EDTA, and 10% glycerol) containing protease inhibitor cocktail was added. Cells were scraped and lysate was incubated at 4° C. under rotary agitation for 1 h. Lysate was centrifuged at 14,000×g for 10 min at 4° C. Supernatant was transferred to a new tube and an aliquot was taken as the input. […] For Western blots, 10 μg/mL Chicken Anti-FLAG (Aves labs ET-DY100) and IgY control (R&D Systems AB-101-C) antibodies were biotinylated (Thermo Fisher Scientific 90407) and added to the respective conditions. Lysates with antibodies were incubated at 4° C. under rotary agitation overnight. For each mL of lysate, 50 μL of Pierce Protein A/G Magnetic Beads (Mass spectrometry; Thermo Fisher Scientific 88803) or Pierce Streptavidin Magnetic Beads (Western blot; Thermo Fisher Scientific 88817) was washed twice with lysis buffer. Lysates with antibodies were added to the beads and incubated at 4° C. under rotary agitation for 4 h. Beads were washed with lysis buffer 3 times and resuspended in lysis buffer for storage.
(§2) Magnetic beads were resuspended in 100 mM Tris pH 7.8, reduced, alkylated and digested with trypsin at 37° ° C. overnight. This solution was subjected to solid phase extraction to concentrate the peptides and remove unwanted reagents followed by injection onto a Shimadzu HPLC with fraction collector. Eight fractions were collected and after concentration were injected on a Waters NanoAcquity HPLC equipped with a self-packed Aeris 3 μm C18 analytical column 0.075 mm by 20 cm, (Phenomenex). Peptides were eluted using standard reverse-phase gradients. The effluent from the column was analyzed using a Thermo Orbitrap Elite mass spectrometer (nanospray configuration) operated in a data dependent manner for 54 minutes. The resulting fragmentation spectra were correlated against the known database using Proteome Discover 1.4 (Thermo Fisher Scientific).

[2] = target: RPL34 (human, UniProt P49207 2-117)
Experimental: as §1, §2

[3] = target: T2, TECR (human, UniProt Q9NZ01 1-308)
T2 construct: also called NP_612510.1 (+2)
T2 sequence (looked up): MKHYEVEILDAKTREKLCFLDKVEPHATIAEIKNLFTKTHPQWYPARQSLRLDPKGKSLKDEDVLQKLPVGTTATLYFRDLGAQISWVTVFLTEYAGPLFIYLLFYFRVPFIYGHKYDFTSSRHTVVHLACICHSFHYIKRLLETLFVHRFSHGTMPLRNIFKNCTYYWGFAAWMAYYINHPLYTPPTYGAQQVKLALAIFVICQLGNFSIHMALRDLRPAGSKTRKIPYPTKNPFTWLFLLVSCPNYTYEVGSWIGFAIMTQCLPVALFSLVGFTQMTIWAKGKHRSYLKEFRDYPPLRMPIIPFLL
Experimental: as §1, §2

[4] = target: T3, IPO7 (human, UniProt O95373 1-1038)
T3 construct: also called NP_006382.1
Experimental: as §1, §2

[5] = target: T4, TRAFD1 (human, UniProt O14545 2-582)
T4 construct: also called NP_006691.1
T4 sequence (looked up): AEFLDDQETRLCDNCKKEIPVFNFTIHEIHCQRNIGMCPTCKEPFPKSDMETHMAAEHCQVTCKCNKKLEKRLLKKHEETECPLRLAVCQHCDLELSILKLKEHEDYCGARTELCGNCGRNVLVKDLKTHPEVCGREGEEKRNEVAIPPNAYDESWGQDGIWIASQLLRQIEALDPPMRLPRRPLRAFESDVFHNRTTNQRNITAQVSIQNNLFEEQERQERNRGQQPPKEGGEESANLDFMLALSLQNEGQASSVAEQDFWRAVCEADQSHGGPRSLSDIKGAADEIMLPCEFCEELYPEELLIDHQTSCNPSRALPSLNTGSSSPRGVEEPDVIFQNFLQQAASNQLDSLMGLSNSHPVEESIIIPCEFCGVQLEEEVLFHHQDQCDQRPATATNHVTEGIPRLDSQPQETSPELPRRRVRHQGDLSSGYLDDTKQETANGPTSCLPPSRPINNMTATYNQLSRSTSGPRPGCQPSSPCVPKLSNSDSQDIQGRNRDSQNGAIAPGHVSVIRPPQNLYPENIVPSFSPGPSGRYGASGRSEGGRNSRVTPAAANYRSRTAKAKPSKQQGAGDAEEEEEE
Experimental: as §1, §2

[6] = target: T5, SLC25A22 (human, UniProt Q9H936 1-323)
T5 construct: also called NP_001177990.1
T5 sequence (looked up): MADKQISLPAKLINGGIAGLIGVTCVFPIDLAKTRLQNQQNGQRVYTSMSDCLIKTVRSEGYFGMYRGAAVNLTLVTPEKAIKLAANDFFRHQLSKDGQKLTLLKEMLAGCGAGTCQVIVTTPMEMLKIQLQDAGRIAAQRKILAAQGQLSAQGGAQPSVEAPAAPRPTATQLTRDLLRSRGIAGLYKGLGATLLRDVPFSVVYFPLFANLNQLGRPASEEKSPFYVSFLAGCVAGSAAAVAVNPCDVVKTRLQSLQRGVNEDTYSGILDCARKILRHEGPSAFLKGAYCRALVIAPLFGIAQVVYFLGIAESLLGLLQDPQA
Experimental: as §1, §2

Measured: co-IP mass spectrometry count

T3 sequence (O95373 whole entry): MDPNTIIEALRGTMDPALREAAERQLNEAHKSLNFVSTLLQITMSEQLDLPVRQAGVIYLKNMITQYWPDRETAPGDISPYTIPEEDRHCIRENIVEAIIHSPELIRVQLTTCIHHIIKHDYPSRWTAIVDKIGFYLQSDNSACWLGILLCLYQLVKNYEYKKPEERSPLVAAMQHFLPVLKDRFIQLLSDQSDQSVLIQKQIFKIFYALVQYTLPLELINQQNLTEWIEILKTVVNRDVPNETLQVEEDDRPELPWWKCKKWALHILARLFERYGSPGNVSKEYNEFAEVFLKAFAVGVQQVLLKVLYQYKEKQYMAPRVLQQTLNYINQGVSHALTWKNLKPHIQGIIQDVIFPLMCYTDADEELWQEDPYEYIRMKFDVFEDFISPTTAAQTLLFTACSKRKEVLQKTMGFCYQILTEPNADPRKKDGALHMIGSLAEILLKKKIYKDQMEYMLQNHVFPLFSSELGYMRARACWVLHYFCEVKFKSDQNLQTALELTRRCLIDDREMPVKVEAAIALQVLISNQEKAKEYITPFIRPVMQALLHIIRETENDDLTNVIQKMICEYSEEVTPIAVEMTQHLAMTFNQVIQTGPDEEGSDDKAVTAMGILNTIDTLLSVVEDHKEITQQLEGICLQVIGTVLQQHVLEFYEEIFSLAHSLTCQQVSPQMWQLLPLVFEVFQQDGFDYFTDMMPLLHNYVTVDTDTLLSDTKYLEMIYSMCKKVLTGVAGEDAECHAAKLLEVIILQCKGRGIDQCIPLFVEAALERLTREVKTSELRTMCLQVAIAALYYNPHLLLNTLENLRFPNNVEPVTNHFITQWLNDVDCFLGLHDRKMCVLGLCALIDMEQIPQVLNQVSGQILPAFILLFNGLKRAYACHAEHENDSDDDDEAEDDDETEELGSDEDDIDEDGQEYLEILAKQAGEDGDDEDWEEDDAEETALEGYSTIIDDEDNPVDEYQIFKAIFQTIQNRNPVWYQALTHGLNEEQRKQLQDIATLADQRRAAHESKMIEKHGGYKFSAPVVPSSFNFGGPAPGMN

B1: N-terminal FLAG tagged B3GNT2 (enzyme, human, UniProt Q9NY97 1-397, looked up)
chain: MSVGRRRIKLLGILMMANVFIYFIMEVSKSSSQEKNGKGEVIIPKEKFWKISTPPEAYWNREQEKLNRQYNPILSMLTNQTGEAGRLSNISHLNYCEPDLRVTSVVTGFNNLPDRFKDFLLYLRCRNYSLLIDQPDKCAKKPFLLLAIKSLTPHFARRQAIRESWGQESNAGNQTVVRVFLLGQTPPEDNHPDLSDMLKFESEKHQDILMWNYRDTFFNLSLKEVLFLRWVSTSCPDTEFVFKGDDDVFVNTHHILNYLNSLSKTKAKDLFIGDVIHNAGPHRDKKLKYYIPEVVYSGLYPPYAGGGGFLYSGHLALRLYHITDQVHLYPIDDVYTGMCLQKLGLVPEKHKGFRTFDIEEKNKNNICSYVDLMLVHSRKPQEMIDIWSQLQSAHLKC
notes: Bait of the co-IP; pulled down from cell lysate with mouse anti-FLAG antibody; also called N-FLAG B3GNT2; N-term FLAG; not shown: N-terminal FLAG tag
0: all assays above
